# Data: the RNAGym collection of RNA variant scans (doi:10.1073/pnas.2313332121)
# B1: TPR t1 (parent)
# chain: GACCAAUCUGCCCUCAGAGCUCGAGAACAUCUUCGGAUGCAGAGGAGGCAGGCUUCGGUGGCGCGAUAGCGCCAACGUCCUCAACCUCCAAUGCAUCCCACCACAUGAUGAUGCCUGAAGAGCCUUGGUUUUUUG
# Variants of: B1
# Experiment: polymerase ribozyme fitness, log enrichment relative to wild type (log ratio); higher = more active; in vitro selection for triplet polymerase activity
# Method in brief: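 Fitness measures genotype enrichment against wild-type enrichment on a logarithmic scale, with inverse-variance-weighted averaging of replicates. The logarithm is base 2, and genotypes were kept only with ≥10 input reads and ≥1 read per output in Illumina sequencing. The sequenced libraries came from one triplicate in vitro selection round, including frozen incubation at −7 °C, of PCR-built, transcribed mutant libraries of each subunit of a heterodimeric triplet polymerase ribozyme.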
row,Variant,polymerase ribozyme fitness (log ratio)
1,GACCAAUCUGUCCUCAGAGCUGGAGAACAUCUUCGGAUGCAGAGGAGGCAGGCUUCGGUGGCGCGAUAGCGCCAACGUCCUCCACCUCCAAUGCAUCCCACCACAUGAUGAUGCCUGAAGAGCCUUGGUUUUUUG [C11U C22G A83C],-4.06
2,GACCAAUCUGUCCUCAGAGCUCGAGAACAUCUUCGGAUGCAGAGGAGGCAGGCUUCGGUGGCGCGCUAGCGCCAACGUCCUCAACCUCCAAUGCAUCCCACCACAUGAUGAUGCCUGAAGAGCCUUGGUUUUUUG [C11U A66C],-1.81
3,GACCAAUCUGUGCUCAGAGCUCGAGAACAUCUUCGGAUGCAGAGGAGGCAGGCUUAGGUGGCGCGAUAGCGCCAACGUCCUCAACCUUCAAUGCAUCCCACCACAUGAUGAUGCCUGAAGAGCCUUGGUUUUUUG [C11U C12G C56A C88U],-1.97
4,GACCAAUCUGUCUUCAGAGCUCGAGAACAUCUUCGGAUGCAGAGGAGGCAGGCUUCGGUGGCGCGAUAGCGCCAACGUCCUCCACCUCCAAUGCAUACCACCACAUGAUGAUGCCUGAAGAGCCUUGGUUUUUUG [C11U C13U A83C C97A],-4.34
5,GACCAAUCUGUCCUCAGAGCUCGAGAACAUCUUCGGAUGCAGUGGAGGCAGGCUUCGGUGGCGCGAUAGCGCCAACGUCCUCAACCUCCAAUGCAUCCCACCACAUGAUUAUGCCUGAAGAGCCUUGGUUUAUUG [C11U A43U G110U U132A],-3.03
6,GACCAAUCUGUCCUCAGAGCUCGAGAACAUCUUCGGAUGCAGAGGAGGCAGGCUUCGGUGGCGCGAUAGCGCCAACGUCCUCAUCCUCUAAUGCAUCCCACCACAUGAUGAUGCCUGAAGAGCCUUGGUUUUUUG [C11U A84U C89U],-1.61
7,GACCAAUCUGUCCUGAGAGCUCGAGAACAUCUUCGGAUGCAGAGGAGGCAGGCUUCGGCGGCGCGAUAGCGCCAACGUCCUCAACCUCCAAUGCAUCCCACCACAUGAUGAAGCCUGAAGAGCCUUGGUUUUUUG [C11U C15G U59C U112A],-4.15
8,GACCAAUCUGUCCUCAGAGCUAGAGAACAUCUUCGGAUGCAGAGGAGGCAGGCUUCGGUGGCGCGAUAGCGCAAACGUCCUCUACCUCCAAUGCAUCCCACCACAUGAUGAUGCCUGAAGAGCCUUGGUUUUUUG [C11U C22A C73A A83U],-5.9
9,GACCAAUCUGUCCUCAGAGUUCGAGAACAUCUUCGGAUGCAGAGGAGGCAGGCUUAGGUGGCGCGAUAGCGCCAACGUCCUCAACCUUCAAUGCAUCCCACCACAUGAUGAUGUCUGAAGAGCCUUGGUUGUUUG [C11U C20U C56A C88U C114U U131G],-0.397
10,GACCAAUCUGUCCUCAGAGCUCGAGAACAUCUUCGGAUGCAGAGGAGGCAGGCUUCGGUGGCGCGAUAGCGCCAACGUCCUCACCCUCCAAGGCAUCCCACCACAUGAUGAUGCCUGAAGAGCCUUGGUUUUUUG [C11U A84C U92G],-3.8
11,GACCAAUCUGUCCUAAGAGCUCGAGAACCUCUUAGGAUGCAGAGGAGGCAGGCUUCGGUGGCGCGAUAGCUCCAACGUUCUCAACCUCCAAUGCAUCCCACCAAAUGAUGAUGCCUUAAGAGCCUUGGUUUUUUG [C11U C15A A29C C34A G71U C79U C104A G117U],-6.92
12,GACCAAUCUGUCGUCAGAGCUCGAGAACAUCUUCGGAUGCAGAGGAGGCAGGCUUCGGUGGCGCGCUAGCGCCAAGGUCCUCAACCUCCAAUGCAUCCCACCACAUGAUGAUGCCUGUAGAGCAUUGGUUUUAUG [C11U C13G A66C C76G A118U C124A U133A],-0.556
13,GACCAAUCUGUCGUCAGAGCUCGGGAACAUCUUCGGAUGCAGAGGACGAAGGCUUCGGUGGCGCGAUAGCGCCAACGUCCUCAACCUGCAAUGUAUCCCACCACAUGUUGAUGUCUGAAGAGCCUUGGUUUUUUG [C11U C13G A24G G47C C49A C88G C94U A108U C114U],-6.99
14,GACCAAUCUGUCCUAAGAGCUCGAGAACAUCUUCGGAUGCAGAGGAGGCAGGCUUGGGUGGCGCGAUAUCGCCAACGUCCUCAACCUCCAAUGCAUCCCACCACAUGAUGAUGCCUGAAGAGCCUUGGUUUUUUG [C11U C15A C56G G69U],-2.64
15,GACCAAUCUGUCCUCAGAGCUCGAGAACAUCUUCGGAUGCAGAGGAGGCAGGCUUCGGUGGCGCGAUAGCGCCUACGUCCUCAACCUCCAAUGCAUCCCACCACAUGAUGAUACCUGAAGAGCCUUGGUUUUUUG [C11U A74U G113A],-2.56
16,GACCAAUCUGUCAUCAGAGCUUGAGAACAUCUUCGGAUGCAGAGGAGGCAGGCUGCGGUGGCGCGAUAGCGCCAACGUCCUCAACCUCCAAUGCAUCCCACCACAUGAUGAUGCCUGAAGAGCCUUGGUUUUUUG [C11U C13A C22U U55G],-4.69
17,GACCAAUCUGUCCUCAGAGCUCGAGAACAUCUUCGGAUGCAGAGGAGGCAGGCUUCGGUGGCGCGGUAGCGCCAACGUCCUCAACCGCCAAUGCAUCCCACCACAUGAUGAUUCCUGAAGAGCCUUGGUUUUUUG [C11U A66G U87G G113U],-5.47
18,GACCAAUCUGUCCUCAGAGCUCGAGAACAUCUUCGGAUGCAGAGGUCGCAGUCUCCGGUGGCGCGAUAGCGCCAACGUCCUCAACCUCCAAUGCAUCCCACCACAUGAUGAUGCCUUAAGAGCCUUGGUUUUUUG [C11U A46U G47C G52U U55C G117U],-6.86
19,GACCAAUCUGUCUUCAGAGGUCGAGAACAUCUUCGGAUGCAGAGGAGGCAGGCUUCGGUGGCGCGAUAGCGCCAACGUCCUCAACCUCCAAUGCAUCCCACCACAUAAUGAUGCCUUAAUAGCCUUGGUUUUUUG [C11U C13U C20G G107A G117U G120U],-3.09
20,GACCAAUCUGUCCUCAGAGCUCGAGAACAUCUUCGGAUGCAGAGGAGGCAGGCUUCGGUGGCGCGAUAGCGCCAACGUCCUCCACCUCCAAUACAUCCCACCACAUGAUGAUGCCUGAAAAGCCUUGGUUCUUUG [C11U A83C G93A G120A U131C],0.209
21,GACCAAUCUGUCCUCAGAGUUAGAGAACAUCUUCGGAUGCAGAGGAGGCAGGCUUCGGUGGCGCGAUAGCGCCAACGUCCUCAACCUCCAUUGCAUCCCACCACAUGAUGAUACCUGAAGAGCCUUGGUUUUUUG [C11U C20U C22A A91U G113A],-4.25

row,Variant,polymerase ribozyme fitness (log ratio)
1,GACCAAUCUGUCGUCAGAGCUCGAGAACAUCUUCGGAUGCAGAGGAGGCAGGCUUCGGUGGCGCGAUAGCGCCAACGUCCUCAACCUCCAAUGCAUCCCACCACAUGAUGAUGACUGAAGAGCCUUGGUUUUUUG [C11U C13G C114A],-4.11
2,GACCAAUCUGUCCUCAGAGCUCGAGAACAUCUUCGGAUGCAGAGGGGGCAUGCUUCGGUGGCGCGAUAGCGCCAACGUCUUCAACCUCCAAUGCAUCCCACCACAUGAUGAUGCCUGAAGAGCCUUGGUUUUUUG [C11U A46G G51U C80U],-1.92
3,GACCAAUCUGUCCUCAGAGCUCGAGAACAUCUUCGGAUGCAGAGGAGGCAGGCUUCGGUGGCGCGAUAGCGCCAACGUCCUCAACCUCCAAUGCAUCCCACCACAUGAUGAUGCCUGAAGCGCCUUGGUUUUUUG [C11U A121C],1.76
4,GACCAAUCUGUCCUCAGAGCUCGAGAACAUCUUCGGAUGCAGAGGAGGCAGGCUUCGGUGGCGCGAUAGCGCCAACGUCCUCAACCUCCAAUGCAUCCCACCACAUGGUGAUGCCUGUAGAGCCUUGGUUUUUUG [C11U A108G A118U],-3.04
5,GACCAAUCUGUCCUCAGAGCUCGAGAACAUCUUCGGAUGCAGAGGAGGCAGGCUUCGGUGGCGCGAUAGCGCCAGCGUCCUCAACCUCCAAUGCAUCCCACCACAUGAUGAUGCCUGAAGAGCCUUGGUUUUUUG [C11U A75G],-0.146
6,GACCAAUCUGUCCUCAGAGCUCGAGAACAUCUUCGGAUGCAGAGGAGGCUGGCUUCAGUGGCGCGAUAGCGCCAACGUCCUCAACCUCCAAUGCAUCCCACCACAUGAUGAUGCCUGAAGAGCCUUGGUUUUUUG [C11U A50U G57A],-1.89
7,GACCAAUCUGUCCUAAGAGCUCGAGAACAUCUUCGGAUGCAGAGGAGGAAGGCUUCGGUGGCGCGAUAGCGCGAACGUCCUCAAACUCCAAUGCAUCCCACCACAUGAUGAUGCCUGAAAAGCCUUGGUUUUUUG [C11U C15A C49A C73G C85A G120A],-4.65
8,GACCAAUCUGUCCUCAGAGCUCGAGAACAUCUUCGGAUGCAGAGGAGGCAGGCUUCGGUGGCGCGAUAGCGCCAACGUCCUCAACCUCCGAUGCAUGCCACCACAUGAUGAUGCCUGAAGAGCCUUGGCUUUUUG [C11U A90G C97G U129C],-5.59
9,GACCAAUCUGUCCUAAGAGCUCGAGGACAUCUUCGGAUGCAGAGGAGGCAGGGUUCGGUGUCGCGAUAGCGCCAACGUCCUCAACCUCCAAUGCAUCCCACCACAUGAUGAUGCCUGAACAGCCUUGGUUUUUUG [C11U C15A A26G C53G G61U G120C],-4.04
10,GACCAAUCUGUCCUCAGAGCUCGAGAACAUCUUCGGAUGCAGAGGAGGCAGGCUUCGGUGGCGCGAUAGCGCCAACGUCCUCGACCUCCAAUGCAUCCCACCACAUGAUGAUGCCUGAAGAGCCUUGGUUUUUUG [C11U A83G],-1.21
11,GACCAAUCUGUCCUCAGAGCUGGAGCACAUCUUCGGAUGCAGAGGAGGCAGGCUUCGGUGGCGUGAUAGCGCCAACGUCCUCAACCUCCAAUGCAUCCCACCACAUGAUGAUGCCUGAAGAGCCUUGGUUUUUUG [C11U C22G A26C C64U],-4.03
12,GACCAAUCUGUUCUCAGAGCUCGAGAACUUCUUCGGAUGCAGAGGAGGCAGGCUUCGGUGGCGCGAUAGCGCCAACGUCCUCAACCUCCAAUGCAUCCCACCACAUGAUUAUGCCUGAAGACACUUGGUUUUUUG [C11U C12U A29U G110U G122C C123A],-0.893
13,GACCAAUCUGUCCUCAGAGCUCGAGAACAUCUUCGGAUGCAGAGGAGGCAGGCUUCGGUGGCGCGAUAGCGCCAACGUCCUCUACCUCCAAUGCAUCCCAGCACAUGAUGAUGCCUGAAGAGCCUUGGUUUUUUG [C11U A83U C101G],-2.28
14,GACCAAUCUGUCCUUAGAGCUCGAGAACAUCUUCGGAUGCAGAGGAGGCAGGCUUUGGUGGCGCGAUAGCGUCAACGUCCUCAACCUCCAAUGCAUCCCACCACAUGAUGAUGCCUGAAGAGCCUUGGUUUUUUG [C11U C15U C56U C72U],-1.82
15,GACCAAUCUGUCCUCAGAGAUCGAGAACAUCUUCGGAUGCAGAGGAGGCAGGCUUCGGUGUCGCGAUAGCGCCAACGUCCUCAACCUCCAAUGCAUCCCACCACAUGAUGAUGCCUGAAGAGCCUUGGUUUUGUG [C11U C20A G61U U133G],-2.19
16,GACCAAUCUGUCCUCAGAGCUGGAGAACAUCUUCGGAUGUAGAGGAGGCAGGCUUCGGUGGCGCGAUAGCGCCAACGUCCUCAACCUCCAAUGCAUCCCACCACAGGAUGAUGCCUGAAGAGCCUUGGUUUUUUG [C11U C22G C40U U106G],-4.43
17,GACCAAUCUGUCCUAAGAGCUCGAGAACAUCUUCGGAUGCAGAGGAGGCAGGCUUCGGUGGCGUGAUAGCGCCAACGUCCUCAUCCUCCAAUGCAUCCCACCACAUGAUGAUGCCUGAAGAGCCUUGGUUUUUUG [C11U C15A C64U A84U],-2.56
18,GACCAAUCUGUCCUCAGAGCUUGAGAACAUCUUCGGAUGGAGAGGAGGCAGGCUUCGGUGGCGCGAUAGCGCCAACGUCCUCAACCUCCAAUGCAUCCCACCACAUGAUGAUGCCUGAAGAGCCUUGGUUUUUUG [C11U C22U C40G],-4.75
19,GACCAAUCUGUCCUCAGAGAUCGAGAACAUCUUCGGUUGCAGAGGAGGCAGGCUUCGGUGACGCGAUAGCGCCAACGUCCUCCACCUCCAAUGCAUAUCACCACAUGAUGACGCCUGAAGAGCCUUGGUUUUUUG [C11U C20A A37U G61A A83C C97A C98U U112C],-7.47
20,GACCAAUCUGUCCUCAGAGUUCGAGAUCAUCUUCGGAUGCAGAGGAGGCAGGCUUCGGUGGCGCGAUAGCGCCAACGUCCUCAACCUCCAAUGCAUCCCACCACAUGAUGAUGCCUGAAGAGCCUUGGUUUUUUG [C11U C20U A27U],-5.92
21,GACCAAUCUGUCGUCAGAGCUCGAGAACAGCUUCGGAUGCAGAGGAGGCAGGCUACGGUGGCGCGAUAGUGCCAACGUCCUCAACCUCCAAUGCAUCCCACCACAUGUUGAUGCCUGAAGAGCCUUGGUUUUUUG [C11U C13G U30G U55A C70U A108U],-3.69
